According to patent publication US11034736B2, “Anti-viral cnidarins” (priority 2014, dated 2021):
“And” between values parts separate entries of the source, which are not always exact repeats. Equal entries are not always repeated. Where two headings read alike, the source gives them in different places.

Experiments:
in vitro = settings: human
Procedure: (§1) The cultures were incubated for 7 days at 37° C./5% CO2. Efficacy of the compounds was evaluated by measuring the amount of reverse transcriptase in the culture supernatant and toxicity was evaluated using XTT to measure cell viability. AZT was evaluated in parallel as an assay control.

HIV-1US/92/727 = assay: Anti-HIV evaluation in PHA-stimulated human PBMCs, reverse transcriptase in supernatant; assay type: cell-based; settings: HIV-1US/92/727, human PBMCs, 7 days
Procedure: as §1

HIV-1RF = assay: XTT-tetrazolium anti-HIV assay, HIV-1RF in CEM-SS cells; assay type: cell-based; settings: for EC50: HIV-1RF, T-tropic laboratory strain, CEM-SS cells, XTT, 6 days
Procedure: (§2) A 2,3-bis-[2-methoxy-4-nitro-5-sulfophenyl]-2H-tetrazolium-5-carboxanilide inner salt (XTT)-tetrazolium-based assay was used to determine the anti-HIV activity of CNID-1, -2 and -3 against a T-tropic laboratory strain (HIV-1RF) in T-lymphoblastic CEM-SS cells as described previously (Gulakowski et al., J. Virol. Methods, 33: 87-100 (1991)). CEM-SS cells were maintained in RPMI 1640 media without phenol red and supplemented with 10% fetal bovine serum (BioWhittaker), 2 mM L-glutamine (BioWhittaker), and 50 μg/ml gentamicin (BioWhittaker) (complete medium). Exponentially growing cells were washed and resuspended in complete medium, and a 50 μl aliquot containing 5×10^3 cells was added to individual wells of a 96-well round-bottom microtiter plate containing serial dilutions of the respective cnidarin protein in a volume of 100 μl of medium. Stock supernatants of HIV-1RF were diluted in complete medium to yield sufficient cytopathicity (80-90% cell kill in 6 days), and a 50 μl aliquot was added to appropriate wells. Plates were incubated for 6 days at 37° C. and then stained for cellular viability using XTT.
(§3) The HIV reverse transcriptase inhibitor 3′-Azido-3′-deoxythymidine (AZT) was used as a positive control. All assays were carried out in triplicate for all viruses and cells.

Macrophage = assay: Cell viability of monocyte/macrophage cultures (CellTiter formazan dye reduction); assay type: cell-based, human; settings: macrophages
Description: (§4) To test the anti-HIV activity of CNID1 against HIV primary isolates in fresh human cells, monocyte-tropic HIV-1 strain Ba-L was obtained from the NIAID AIDS Research and Reference Reagent Program (National Institutes of Health, Bethesda, Md.). The low passage HIV-1 pediatric isolate ROJO was derived as described previously (Buckheit et al., AIDS Res. Hum. Retroviruses, 10: 1497-1506 (1994)). Human peripheral blood mononuclear cells (PBMCs) and macrophages were isolated from hepatitis and HIV seronegative donors following Ficoll-Paque centrifugation as described elsewhere (Gartner & Popovic, Techniques in HIV Research, Aldovini, A. and Walker B., eds., pp. 59-63, Stockton Press, New York, 1990). Antiviral assays were carried out with 3-day-old phytohaemagglutinin/interleukin-2 stimulated PBMCs or 6-day-cultured monocyte/macrophages. […] HIV-1 replication in PBMC (ROJO) or monocyte macrophage (Ba-L) cultures were determined by measurement of reverse transcriptase activity (Buckheit et al., Antiviral Res., 21: 247-265 (1993)) in the supernatants or p24 antigen expression by ELISA (Coulter, Hialeah, Fla.), respectively. Cell viability by formazan dye reduction was determined in replicated cultures using the CellTiter reagent (Promega, Madison, Wis.). […]

human PBMCs = assay: Toxicity in PHA-stimulated human PBMCs, XTT cell viability; settings: human PBMCs, XTT, 7 days
Procedure: as §1

[1] = tested on: HeLa CD4 LTR β-galactosidase cells; assay: Cytotoxicity in the attachment and fusion assays; assay type: cell-based
Procedure: as §3
(§5) Attachment and fusion assays were performed in HeLa-CD4-LTR-β-galactosidase cell lines as described previously (Gartner & Popovic, (1990), supra) with the following modifications. Following the interaction of HIV-1IIIIIB with HeLa CD4 LTR β-gal cells, viral attachment to HeLa CD4 LTR β-gal cells was detected as cell-associated p24 antigen following a 1 hour adsorption of virus and vigorous washing for removal of unbound virus. Fusion of HIV-1IIIIB with HeLa CD4 LTR β-gal cells was detected by chemiluminescence using a single-step lysis and detection method (Tropix Gal-screen, Bedford, Mass.) and results reported as EC50 values. Chicago Sky Blue, a polysulfonic acid dye inhibitor of HIV attachment and fusion, was used as a positive control for all assays (Clanton et al., J. Acquired Immune Defic. Syndr., 5: 771-781 (1992)).

HIV-1IIIB [2] = assay: Viral attachment assay, cell-associated p24 antigen in HeLa CD4 LTR β-gal cells; assay type: cell-based
Procedure: as §5

PBMC = assay: Cell viability of PBMC cultures (CellTiter formazan dye reduction); assay type: cell-based, human
Description: as §4

CEM-SS cells = assay: Direct toxicity to uninfected CEM-SS control cells (XTT); assay type: cell-based, human
Procedure: as §2, §3

HIV-1ROJO = assay: HIV-1 ROJO replication in human PBMC cultures, supernatant reverse transcriptase activity; assay type: cell-based; settings: T-tropic primary isolate
Description: as §4

HIV-1IIIB [3] = assay: Viral fusion assay, chemiluminescence in HeLa CD4 LTR β-gal cells; assay type: cell-based
Procedure: as §5

HIV-1IIIB gp120 [4] = biological target: T1, HIV-1IIIB gp120 (Human immunodeficiency virus type 1 group M subtype B, UniProt P04578); settings: ELISA, 100 ng/well gp120
Procedure: High protein binding Greiner 96-well plates (VWR, Bridgeport, N.J.) were coated with 1 pmol/well of recombinant HIV-1IIIIB gp120 (Immuno Diagnostics, Woburn, Mass.) or recombinant HIV-1HXB2 gp41 (Vybion Inc., Ithaca, N.Y.) at 4° C. overnight. The wells were emptied and then blocked with 200 μl/well of 3% non-fat dry milk (Bio-Rad, Hercules, Calif.) blocking solution for 2 hrs. A control plate was incubated with blocking solution only. After washing three times with PBST, 0.5-log10 serial dilutions of rCNID-1-Trx were added to triplicate wells of gp120−, gp41− and the blocking solution control plate, and the plates were incubated for 2 hrs. The plates were washed with PBST and 100 W/well of a 1:250 dilution of polyclonal rabbit anti-CNID-1 antibody was added and allowed to incubate for 1 hr, followed by three washes with PBST. Goat anti-rabbit (H+L), peroxidase conjugated secondary antibody (Thermo Fisher Scientific Inc., Rockford, Ill.) was added to each well (100 μl/well of a 1:1000 dilution) and further incubated for 1 hr, followed by three washes with PBST. The TMB 2-component Microwell peroxidase substrate kit (KPL Inc., Gaithersburg, Md.) was used for peroxidase detection: 100 W/well, incubation for 5-10 min and the reaction was stopped by addition of 0.5M HCl (100 W/well) before reading the absorbance at 450 nm.
Briefly, 100 ng/wells of glycosylated recombinant HIV-1IIIB gp120 (Immuno Diagnostics, Woburn, Mass.) or nonglycosylated HIV-1 gp120 (MyBioSource LLC, San Diego, Calif.) was added to the wells of two 96-well plates, and incubated overnight at 4° C. The plates were washed and blocked as previously described. Serial dilutions of rCNID-1-Trx were added (100 W/well); incubation done for 2 hrs. The plates were then washed and visualized using anti-CNID-1 polyclonal antibodies as above.

HIV-1IIIB gp120 [5] = biological target: T1, HIV-1IIIB gp120
Procedure: Recombinant CNID-1 (in fusion with Trx and rEK cleaved forms of rCNID-1) and recombinant HIV-1IIIIB gp120 (Immuno Diagnostics, Woburn, Mass.) controls were resolved on 4-12% Bis-Tris pre-cast SDS-PAGE gels (Life Technologies, Grand Island, N.Y.) and blotted onto polyvinylidine difluoride membranes. Membranes were blocked with 3% BSA for 2 hours. For CNID-1 detection, the membrane was incubated overnight with rabbit anti-CNID-1 (1:2000 dilution). For detection of rCNID-1 binding to gp120, membranes were incubated overnight with 1 μg/ml rgp120, then washed thrice with PBST before being incubated with polyclonal rabbit anti-gp120 (1:1000 dilution) overnight. Membranes were washed three times with PBST and further incubated with goat anti-rabbit (H+L), peroxidase conjugated secondary antibody (Thermo Fisher Scientific Inc., Rockford, Ill.) at a 1:1000 dilution for 1 hr. After washing with PBST, signals were detected on Hyblot CL autoradiography film (Denville Scientific, Metuchen, N.J.) using the SignalFire ECL reagent system (Cell Signaling Technology Inc., Danvers, Mass.) according to the manufacturer's protocol.

**Q.** For `Cc1cn([C@H]2C[C@H](N=[N+]=[N-])[C@@H](CO)O2)c(=O)[nH]c1=O` [AZT, 3′-Azido-3′-deoxythymidine, reference compound], which CC50 at 7 days (in vitro) is on record?
**A.** The CC50 at 7 days was > 1000 nM.

**Q.** What about the EC50 (HIV-1US/92/727; Human immunodeficiency virus 1, PBMC, 168 h, read-out: EC50) of the same molecule?
**A.** Its EC50 is 1.88 nM.

B1: CNID-3: HIV-inhibitory protein from soft coral Synthecium sp.; 170 amino acids, 17,963 Da, SEQ ID NO: 3 (protein)
chain: GKSAYPGQITSDVPFVTFDVPFDGVNIPQDVRFTIATVNGGKLALYNAKLGDPANNTIVLESDGDHPIPGTFDDPKGRGLDYAFGGLLLFSFHNFVGHKKLYREPDSDITADFPPGLGGSSAITGEGSTVQLYTGIDFTGISEIMPVNTKRNFVVAFGNEFKSVSPTGGG
**Q.** With B1 as the molecule, how does the EC50 (HIV-1RF) read?
**A.** The EC50 was 0.114 nM.

**Q.** What about the CC50 (Macrophage) of the same molecule?
**A.** The CC50 was 4.62 nM.

**Q.** What about the TC50 (human PBMCs) of the same molecule?
**A.** The TC50 was >0.5 µg/mL.

**Q.** What about the CC50 ([1]; attachment assay, read-out: Inhibition of Attachment CC50) of the same molecule?
**A.** Its CC50 is > 55.7 nM.

**Q.** What about the CC50 ([1]; fusion assay, read-out: Inhibition of Fusion CC50) of the same molecule?
**A.** The CC50 was > 55.7 nM.

**Q.** And the EC50 (HIV-1US/92/727)?
**A.** The EC50 was 0.0160 µg/mL.

**Q.** And the “Inhibition of viral attachment to the cell” value (HIV-1IIIB [2])?
**A.** The value was “not attachment”.

**Q.** And the EC50 (HIV-1IIIB [2]; read-out: Inhibition of Attachment EC50)?
**A.** Its EC50 is > 55.7 nM.

**Q.** And the CC50 (PBMC)?
**A.** The CC50 was 155 nM.

**Q.** And the CC50 (CEM-SS cells)?
**A.** The CC50 was > 199 nM.

**Q.** What about the EC50 (HIV-1ROJO) of the same molecule?
**A.** Its EC50 is 1.55 nM and 1.5 nM.

**Q.** What about the “Inhibition of viral fusion” value (HIV-1IIIB [3]) of the same molecule?
**A.** The value was “inhibit HIV viral fusion”.

**Q.** What about the EC50 (HIV-1IIIB [3]; read-out: Inhibition of Fusion EC50) of the same molecule?
**A.** Its EC50 is 2.06 nM.

B2: rCNID-1-Trx: thioredoxin-hexahistidine-CNID-1 fusion protein expressed in E. coli (protein)
chain: GRATLGQLKTSTIPPVTFDVPFDGANIPQDVRFTIATVNGGKGALYNAELGESAGHTIVLESDGDHPIPGTFDPKSGRGLDYLPRGLVLFSSHNYVGNMKMYTEPDSDITADFPPGTPFGVSSAITGEGSAFQLNTGIDHTGEFEIIPPNTKRNLAGVFDNEIRSVSPTGGK
modifications: left off: large carriers; small tags and cut ends
notes: thioredoxin-hexahistidine-CNID-1 fusion protein expressed in E. coli
**Q.** For B2, which “Activity after extraction and refolding from inclusion bodies” value (HIV-1RF; CaCl2 presence) is on record?
**A.** Its value is “low-to-partially active”.

**Q.** What about the “Activity after extraction and refolding from inclusion bodies” value (HIV-1RF; absence of CaCl2) of the same molecule?
**A.** Its value is “inactive”.

**Q.** What about the “Binding to gp120” value (HIV-1IIIB gp120 [4]) of the same molecule?
**A.** The value was “binds to HIV-1 glycoproteins, gp120”.

**Q.** What about the “Binding to gp120 by immunoblot” value (HIV-1IIIB gp120 [5]) of the same molecule?
**A.** Its value is “specific binding”.

B3: rCNID-1 truncated forms: truncated forms of rCNID-1 (~14-16 kDa) from enterokinase digestion of rCNID-1-Trx (protein)
chain: GRATLGQLKTSTIPPVTFDVPFDGANIPQDVRFTIATVNGGKGALYNAELGESAGHTIVLESDGDHPIPGTFDPKSGRGLDYLPRGLVLFSSHNYVGNMKMYTEPDSDITADFPPGTPFGVSSAITGEGSAFQLNTGIDHTGEFEIIPPNTKRNLAGVFDNEIRSVSPTGGK
**Q.** Which EC50 (HIV-1RF) does the source give for B3 here?
**A.** Its EC50 is 45 to 150 nM.

**Q.** And the “Binding to gp120 by immunoblot” value (HIV-1IIIB gp120 [5])?
**A.** The value was “specific binding”.
